Molecular target: T1, ATHB2 (UniProt Q05466 1-284)
T1 sequence: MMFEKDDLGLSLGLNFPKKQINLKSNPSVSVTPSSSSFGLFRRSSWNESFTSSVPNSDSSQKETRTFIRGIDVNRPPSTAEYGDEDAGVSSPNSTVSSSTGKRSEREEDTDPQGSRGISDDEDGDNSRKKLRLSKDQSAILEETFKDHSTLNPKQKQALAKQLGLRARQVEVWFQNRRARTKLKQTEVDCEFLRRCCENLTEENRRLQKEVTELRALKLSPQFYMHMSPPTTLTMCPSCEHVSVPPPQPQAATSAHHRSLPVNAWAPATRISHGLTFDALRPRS
Assay: EMSA; 100x unlabeled identical oligonucleotide used as competitor in a separate lane; LightShift Chemiluminescent EMSA Kit (Thermo Fisher) per manufacturer; native gel; buffer, salt, pH and temperature not stated
Settings: protein: recombinant; tags: 6xHis (pET-28a); chain copies: 2; label: 3' biotin on both strands; blunt

B1: GA20ox2 promoter ABS1 31-mer (dsDNA)
DNA 1: CAATTTGAAGACAATGTTAGGAATTAGTTAC
DNA 2: GTAACTAATTCCTAACATTGTCTTCAAATTG
binding result: binds
